# Source: a protein production outcome set (Wang et al. 2014)
# Experiment: label from the status in PepcDB records
# 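Also: failed if final PepcDB status was selected cloned or expressed and not failed if soluble or beyond.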
row,Sequence,protein production
1,MTTVRTRIAPSPTGDPHVGTAYIALFNLCFARQHGGQFILRIEDTDQLRSTRESEQQIYDALRWLGIEWDEGPDVGGPHGPYRQSERGHIYKKYSDELVEKGHAFTCFCTPERLDAVRAEQMARKETPRYDGHCMHLPKDEVQRRLAAGESHVTRMKVPTEGVCVVPDMLRGDVEIPWDRMDMQVLMKADGLPTYFLANVVDDHLMGITHVLRGEEWLPSAPKLIKLYEYFGWEQPQLCYMPLLRNPDKSKLSKRKNPTSITFYERMGYLPQALLNYLGRMGWSMPDEREKFTLAEMIEHFDLSRVSLGGPIFDLEKLSWLNGQWIREQSVEEFAREVQKWALNPEYLMKIAPHVQGRVENFSQIAPLAGFFFSGGVPLDASLFEHKKLDPTQVRQVLQLVLWKLESLRQWEKERITGCIQAVAEHLQLKLRDVMPLMFPAITGHASSVSVLDAMEILGADLSRYRLRQALELLGGASKKETKEWEKIRDAIPG,failed
2,MTVAIPDLRVCANLTGKTLLICVGAAKCATSWLHDYLGSRPEVTVSPLKELHFFDSKFPEHALGDADGLALARLSFQLGQAGDAVANLRHRAIFQASLDRAQMIYDDNAYFGHFARLCGPQTRCFCDLTPSYSAIGAEGFAYMKRFCASQDIEVKILFLMRDPVRRFWSQLRHLQQMNPVNDVASKWRHALTAPALLARADYRGIVLALEQVFPSANLLCLFYESLFEGDDAIRRLCRFIGIPFAPAATGQRHNETTVRLPLSDDARDAFRHLLAPQYDFCRERFGRSIPGSWLA,failed
3,MTVAVIGAHGGIGRRLLPRLNEAGHDPIGVVRSEDQFAAIRDRGAEPRLGDLEGEVASALDGADAVVFTAGAGGSTGWDKTILVDLWGAERAVHACEEKEIDRFVMVSSRGAGDPESRQGPIKPYIVAKHVADRTLQRSSLDETILRPTRLTDAEGTGRVAAYVDTDPDAGDPIPRADVAQAVVQCLADDNTVGHAITLYGGDTPIGEALRPSGLEHHHHHH,failed
4,MTVAYIAIGSNLASPLEQVNAALKALGDIPESHILTVSSFYRTPPLGPQDQPDYLNAAVALETSLAPEELLNHTQRIELQQGRVRKAERWGPRTLDLDIMLFGNEVINTERLTVPHYDMKNRGFMLWPLFEIAPELVFPDGEMLRQILHTRAFDKLNKW,failed
5,MTVEQNVLQQSAAQKHQQTFLNQLREITGINDAQILQQALKDSNGNLELAVAFLTAKNAKTPPQEET,not failed
6,MTVSQDILLTDHFKQWIEIFKKGKVSDGTYRKYLYTLSVLKKHFSTATIKTMNRVKYQEMLNEFAEGHSDSSVKQINVHVRASLENLLDDFIIKNDFTKGLEHHHHHH,failed
7,MTVTDHILPTATNGRPPGLIIAAPSTNSGKTTVTLALHAALRRRSLTVQPYKCGPDYIDPAFHEIAAGRPCYNLDSWAFGQDRITYLLDAAAGADLCLAEGVMGLFDGGSARGAWGNGATADIAAFTGWPVVLVIDVAGQAQSAAALALGFARYRSDVRIAGVILNNVASARHEALVRDGFAAQDIPVLGGFERQRDLTLKNRHLGLVQARETARLDIRLQQLADSAVRGIDLDALIRAAQPARPIASTIRPLTPPGQRIALAHDDAFSFIYPHLTAGWRAAGAEIVPFSPLNDEGPDPSCDAAWLPGGYPELHAGRLAAATRFKAALGAFAETRAVHGECGGYMTLGAGLIDADGTRHAMAGLLGLETDFASRKLHLGYRLATLHADAAGKAAGSVLRGHEYHYARVVTVADEPLAEIRDPAGQLTDETGSRRGHVTGTFFHLIDVAEEAIALEHHHHHH,failed
8,MTVVVERQISHPPEKLWRALTQPHLIEEWLMKNDFKPAVGHRFNISADWGGVLDCEVLAVEPNKTLSYTWNLAHQDPAFDLRSVVTFTLTPTPTGTHLRMEQSGFRPDQRRAYGGAKMGWPQFFEKLEQLLDRTDLEHHHHHH,not failed
9,MTVVWINGAFGAGKTTTARELIELIPNSTLFDPEVVGGALAHLLPPKRLAEVGDFQDLPIWRRLVIDTAAALLADLGGTLVVPMTLLRQEYRDEIFGGLAARRIEVRHILLAPAETILRERIASREVPRDLPDGELRTRQWSYDHIEPYRAALASWLTADAHPVDTGALTPYEAAARVAEAVGSGAVPACEIVQTPEPTGETVAAGVLLFDERDRVLLVDPTYKPGWEFPGGVVEPGEAPARAGMREVAEETGLSLRDVPALLVVDWEPPAPPAYGGLRLLFDGGRLDAADAGRVLLPGPELRDWRFATEDEAAGLLPPVRYERLRWALRARERGAAHYLEAGTPVGLEHHHHHH,failed
10,MTVWDRPEPPHRPVPLDRERIVAAAVALADEGGLTAVSVRKVAARLDAGPMRLYGFISTKDELFDLMVDAVYAEILPEERAGDWREALRVLAHRTRQAALRHPWLADLLGGRPALGPNGLAVAEATLAALDGLADVDTVMRAVETVSSYFTGAVRREIADLRAERATGLSKPEWQREHGPHLTRMLATGRYPALAKAVHDGTHVDAEESFATGLDWVLDAVAVRLARPPGS,not failed
11,MTVWFVAAVAVLIIELLTGTVYLLVVSAALAGSGIAYGLTGSTPAAVLTAALLSALGIWFVHAKTAVGKVETDSYQDLDTGKYAEILRYTGGNRYEVFYRGTHWQAQNTGQEVFEPGTRALIVRKEGNLLIIANP,failed
12,MTWCSLSVISCTRFYSRQRTAMLNSLKQEKFLLLALLAAVAAYPLEHLLLGSGQGIALGAGLVLIGFIVMASMRVAHHAELLAEKVGDPYGTMILTLAAVLVEVVILAIMMSNEASPTLVRDTIYSAVMLDINGILGLAALMGGIKHGEQPYNDDSARTYSVMILTAMGVSMVVPEFIPEADWKVYSAFTIGAMVVLYTLFLRMQVGPHSYFFSYSYPEKRRNKEAQEQPHAINLAWSIGILVFGVVVIGALAEVMSKTLDLGLEGTGAPPVITAILVAAISAAPEILTALRAALANRMQSVVNVALGASLSTVILTVPVMEAMALYTGQPFQMAMTPVQTVMVFITLIVSAINLNDGETNAIEGMTHFVLFATFIMLSLLGL,failed
13,MTWLLFGAGNGVGGCLLQRAIECEQAVVLVLRNPEQAKHWREQGVTVVEGDACDPETVAEACRVAGPSAIVVSTMGGGTVNYQGHRTVIDGAEQAGIKRMLLVTSLGCGDSWPLLSPRARAAFGFAVREKSLAESWLQSSTLDHCIVRPGGLLDVVATHNAKLTQGAATLGLVSRSDVALAVDQLLQQPVFGNHIYNLIDPDLTMPAIPLEHHHHHH,failed
14,MTWPARRVLYAIWQDPWMTVSRATYISRMLALVNWATWPDDADTSDTPAACVDGDCSRPNAPGERYPTFRWSDALVRELDAVLLSTEPYRFTEDHADALERQIGKPVLLVDGEMLSWYGSRAVAGARYLRSLAQGFLEHHHHHH,failed
15,MTWQPFYVGTGQAPAGAEEQVVLPPAPPWREFPRRSQHRQFVPPPRLAEAVNAALALRRPLLVTGPAGSGKSTVIEQVAAELALGDVLRWHITSRSSLAEALYRYDALGRIHAQRLEGPGGSDDIAPFLRMGPLGTALLPSARPRALLIDEIDKSDLDLPSDLLDVLERGEFEIPELARYGTDVVPVREHGGERTHLIARGRVQCAEFPFIVMTSNGDRDFPAAFLRRCIRFTMPLPTPETLLRVVEAHMGPEKAAADETGRLITVFLERLTAGESLAVDQLLNAVHLLTGDGAPGDDRRQAIAELILRELSHALEHHHHHH,failed
16,MTWQQFKQQYLVRFWAPMPAVIAAGILSTYYFGLTGTFWAVTGEFTRWGGHLLQLVGANPETWGYFKVIGLQGSPLDRIDGMMIIGMFGGCIAAALWANNVKLRMPQSRIRIAQALIGGIIAGFGARLAMGCNLAAFFTGIPQFSLHAWFFALATAAGSYFGARFTLLPMFRIPVKLKKVDKASSVKQDENQARLRFRIGMLVFAAIIGWGLLTMFNAPKLGIAMLCGVGFGLLIERAQICFTSAFRDMWITGRTHMAKAIILGMAVSAIGIYSYVQLGVPPKIMWAGPNAVIGGLLFGFGIVLAGGCETGWMYRAVEGQVHFWWVGLGNVLGSTLLAYYWDDLAQPLATNWDKVNLLTSFGDKGGLLVTYLLLALSFAAMLLWEKRFFARKAKRDEQLIAEAA,failed
17,MTYLFVAAGGALGSTLRYWLSGLIAGAIGQSFPWGTLVINISGSIVIGAFATLTGPDGRVFIPGDWRQFFMVGVCGGYTTFSSFSLQTLTLAQEGQGLWAAANVVLSVVFCLIGVWLGHVGAVLINEGV,failed
